Experiment [1] concerns the target TraT encoded by pKpQIL (TraT_(pKpQIL)), mature protein C36-L258 (K. pneumoniae (plasmid pKpQIL)). Kind of experiment: cryo-EM structure.
The target in experiment [2] is TraT encoded by the F plasmid derivative pOX38 (TraTF), mature protein C21-L244 (E. coli (F plasmid, pOX38)). The experiment in a line: cryo-EM structure.

As to “TraT encoded by pKpQIL (TraT_(pKpQIL)), mature protein C36-L258 (natural protein)”, the stoichiometry N (usually the number of molecules, sites or subunits per partner or assembly) in experiment [1] was 10.

With “TraT encoded by the F plasmid derivative pOX38 (TraTF), mature protein C21-L244 (natural protein)”, the stoichiometry N in experiment [2] worked out at 10.

These data come from article doi:10.1101/2024.08.09.607165.
